This data set is described as follows: soluble fraction after stress (log2 fold change); higher = more stays soluble; pooled small domains, quantitative proteomics. The conditions noted are these: stress: pH 4. An outline of the steps: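 Small protein domains from pooled custom libraries were exposed to pH 4, then quantified with high-throughput quantitative proteomics. The fold change in how much of each domain remains soluble is read as aggregation propensity. It is given as log2, with higher values meaning more stayed soluble.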
Take “HMPRDQQENIYLLEKGKRLYEEHLGDQRQIIGHRIMIFERILESQDHAQIRRAQSEFAEFLSHYDG”: the “soluble fraction (log2)” value worked out at 0.111.
In the case of “HMPRDYYAVLEVSVSSTPVQIRQAYQRLARRYSPDVNFLDRDTEALFEEIVEAYRVLSNPTARTLYDRG” it was -3.04; in that of “HMPREQQENVYLLEKAKRLYEEYLGDQRQTIGHALAQFERVLESQDPAAIRRAQKEFGEFLERYDG”, -0.139.
For “HMPREVKLPPDLLDALEASPEAKAFFLQLSYTHQKEYAQWIEEAKQEATRQRRLEKTVQMLLEGRRT”, the “soluble fraction (log2)” value is -0.0407.
As to “HMPRFDINFKVGEVVTIKGGSFDGQQGEISEIDHEHGKIKVMLEVLGRLTPVEVEHTEIEKI”, the “soluble fraction (log2)” value is -0.623.
Regarding “HMPRKLDDQLQEQIRYLKSNYPRMSAAGIFRQLQDNGSIKHGDVSESTINRYVNLLSIEMKTTT”, the “soluble fraction (log2)” value was found to be 0.149.
As for “HMPRNMTFAIRGEYITLDALLKAVGAADSGAQAKHRIAEGEVTVDGVVETRKTRKLRGGETVVVDDLAVVL”, the “soluble fraction (log2)” value was -1.4.
In the case of “HMPRQREVPDVSGWTEQHAKVYLEALGYRVKVIYLEVSSFDKGLVQETSPAKGSKVEEGDTIDLRVSNQE” it was 0.299; in that of “HMPRSLGADLRAIRKGRRLTLTDMAEALDRSVGWVSQVERDISTPSISDLRRMAEILDVPVSLLFG”, -1.59; in that of “HMPSARELLATNIVRLRKEKGWSQEDLALEAGLHRTFVAHVERHARNISLDNIERLANALQVNVHILLL”, -1.26.
For “HMPSEDELAERLRGAIRQGDILNEGRMPPERALAEHFGVSRARLRLALGLLQEDGTIYRRHGQGTFAT”, the “soluble fraction (log2)” value is -0.0169.
Turning to “HMPSIGKNILYYRKKRNMTIDELSKKSGVSKSMLSQVEQEKTNPTVVTVWKIARSLDVSINQLLQT”, the “soluble fraction (log2)” value turned out to be 0.136.
Next, “HMPSKKHARWIELEARKFMADNEDAVSDLHELRTRAANFAALKTSTLPVDQHRAIVAGFVARVNELGRRI”: -0.19; “HMPSLSPDETVVVDALRQQNDMQINMISVKTNLPIARLSAILFEMELKGVLKPLAGGVYHLL”: -0.0639.
Turning to “HMPSPEMLKETEKRKAEEIYRSQINLFIDDYHRLKGQYPLLEDIIDNKKDSIPIEILREISISILKNYFE”, the “soluble fraction (log2)” value is -0.926.
Take “HMPSPEVELLEDLLSKTDEAEVEAAFHENQALVNDEFKAMLGSLIQELSKTQEADPEIIARIRFIQKLT”: the “soluble fraction (log2)” value was -1.27.
As to “HMPSREDFAYDSIKEAILSGELLPNQKISLSDLANKLGISIIPVNSAVGRLVAEGLVRQDPHHSPYVV”, the “soluble fraction (log2)” value is -0.31.
Turning to “HMPSRPIQVASFSKEDNAKRAAEALAKIGVTATPQKSEKAGKAVWGVVVTGDDAMLQKIKDAGFADAYFL”, the “soluble fraction (log2)” value was 0.22.
Regarding “HMPSTKDGIKEFLSSGAMKGIGRKTASAIVSRFGIDTLKIIEQEPQRLTEVSGIGKKTAQRIAEAFGKH”, the “soluble fraction (log2)” value was 0.201.
For “HMPSTVRVPDVAETSLSEAKKTIEESGLEVGAIHKVNNDTVKKNHVIKTSPTIGSAKKEGSAIDIYVSKG”, the “soluble fraction (log2)” value came out at 0.201.
For the sequence “HMPSTVSVPDVAGSSLSEAKTTIKSSGLKVGTVHKVSSDTVESGYVIKTSPTAGSSKKEGSSIDIYVSKG”, the “soluble fraction (log2)” value was -0.026.
“HMPTANFPAMAEALKKQYGPPTGEEETSWTHRLGGVFDIKIQSWNTPQGEMVLRSRGAAMDAGML”: the “soluble fraction (log2)” value was found to be 0.283.
For “HMPTEPTARELEVTTLLAQGLSNREIAGALFISEHTVRNHLGHVFSKLGVSSRTQAVVRAGQLGWLR”, the “soluble fraction (log2)” value is -0.798.
As to “HMPTKSDLLQWIKDRASKMGGAFTNSGAYALADAGVDGPRALSSEINKLLTYVNWERSVEADDVIRL”, the “soluble fraction (log2)” value is -0.296.
As to “HMPTLTPFDVARIENAINPRLNLETAAKLKPWIAAGYTAQETADGTGFSPDTVKKYAAIFRK”, the “soluble fraction (log2)” value worked out at 0.146.
On to “HMPTQTEELRRRIVADVNAGEPGAKLGSERELAERYGTSRSSLRQVLAALQEAGLIDRVIGRSGGIFISH”, for which the “soluble fraction (log2)” value was 0.33.
Regarding “HMPTSILEKILNSAAEQFTRYGFKTITMDDIARHAGVSKKTLYQHFETKLDIIVAAVTHFHTMKF”, the “soluble fraction (log2)” value was -1.65.
Turning to “HMPTYEEAKTYLKAAFEHIVAAGRDVGELVEFAFAKSGDAVAPYLRRFLSDVHEGRITIQGLTESAKLAV”, the “soluble fraction (log2)” value was -0.463.
Next, “HMPVEQVWHIAEAGKTKGPFSRASMGRMSADGALTRDTLVWTAGQDGWKKAADVTALATLFT”: -0.0499.
With “HMPVFYATNRQKTTIHNLKRKKGLDDDAYRATIYSFTHGRTDSSKYMYKYEAAELIQKWLDPE”, the “soluble fraction (log2)” value was -0.157.
On to “HMPVGVPGVVYNTDSLNVRKGAGTNYDIVSKLKRGSVIEVLEQTAVDGTVWGRIAEGWVNMEYVSL”, for which the “soluble fraction (log2)” value was -0.363.
On to “HMPVSDLQSALRNTLSKGDATDPAFRQRVYRAAMDALERATGSESDPQRRSEQKQRLIAVIRDMEASYRR”, for which the “soluble fraction (log2)” value turned out to be 0.101.
In the case of “HMPVTKSARQSRIGELIAREPVRSQSELAARLADDGIVVSQGTLSKDLLELGAVRVRTSSGELAYALL”, the “soluble fraction (log2)” value was -0.258.
Regarding “HMPWLIAVTVDGVNLPRFLRRAGEMGLLLTGVRIRGKHLSAFAREDDVPPLRMMAENGGWRFSVGN”, the “soluble fraction (log2)” value is -0.302.
Take “HMPYEHQRAVGALIRRLREQQGWSQRALADWVHMDQSAVSRVETGQRSVTAEELGRFADALHVSTDALVR”: the “soluble fraction (log2)” value worked out at 0.059.
In the case of “HMPYFLKQSNTRSKGLYLQIYHSFYVPGKGSRNKSYKAIGYVSELIKNGIEDPITYAKNLVDELNNNSSTP” it was 0.226; in that of “HMPYPSPADLARMDELIAWVKDEGRLPRDRSGQRSERSMARWLAARRREAAEGTLDPAYRDGLAQVPGWR”, -0.304; in that of “HMPYSAAVTFLDDAKQPMVNYNYRLIAENGIEVSGITDEFGKTQPIQTDQREKVDLYIADLPN”, -0.37.
Take “HMQAALEVQASAGVLAPVPPDQRQALLDTLAQDPRPGYQHEAGRVYGFPFGGFEVRFTVSDGLLTVLSAYK”: the “soluble fraction (log2)” value is -1.16.
Consider “HMQAATQVNIVGLFSNKAVVIINGGKPKTLSVGQTSEGVKLLAADSQTATLQIEGKTQQLGMGQAASVGG”, for which the “soluble fraction (log2)” value amounted to 0.107.
On to “HMQAESLTVVRSAELKADRFLDAATLQTLQTGQVVESLRTESGWVQVRIAGQQGWVRAMNVKGA”, for which the “soluble fraction (log2)” value is -0.569.
Regarding “HMQAITVNNEGKIFLNTIPVTLEELSSKLESLKSSTPEFPVVIRGDSGSQYQGIMDVLNVVGRLGITQIGL”, the “soluble fraction (log2)” value is -1.08.
On to “HMQAKDVEVPDYVGKSFVSIKENNPNDFKFEVKSEYDESKEMGVILDQEPKGGSMKVKSGSTITVTV”, for which the “soluble fraction (log2)” value turned out to be 0.0655.
Turning to “HMQASPADLLSDRELEVFQLTGEWKTTRQIAQELHLSVKTIEYYREQIKRKLNLKSAAELTQHATAWVQRG”, the “soluble fraction (log2)” value is no less than 0.43.
In the case of “HMQDAVASEKIQLMSEALHARDTGDLLLAKEKVEKLIALAPNDKNIQALLLTINQSIEDKGL”, the “soluble fraction (log2)” value is -0.0958.
Turning to “HMQDIDIVDLKRISELIYQKYNYDFRNYAMSSFKRRVQRIIELKKLTVDGLIKRLNDTPSFINEFLDELTV”, the “soluble fraction (log2)” value was -0.2.
Turning to “HMQDNLKKYMDKLSQRDAELIVYKYLWNMSEKEISEMFHIKQEQVHVYVGRAKKRLFKIIKKEME”, the “soluble fraction (log2)” value worked out at 0.111.
Consider “HMQDRDKNIEEGRQLVLHEMDRLDLVDEPLHDVARQLNMKAVEDMFAAVGAGDLRLGQIIHQLLKQADTN”, for which the “soluble fraction (log2)” value is -1.11.
For “HMQDSIYYAQYRINIRNMPSSEGMVISRASVGEALEVLDWQEQWSKVRKQSGVEGYVASRLLTK”, the “soluble fraction (log2)” value was -0.64.
As for “HMQDTIDLVIQVNGKLRGQMNVPKDTDRATIEQLAINLENVQKIVAGNAIKKIIIVPGRLINIVVSKNL”, the “soluble fraction (log2)” value is -0.209.
